Measured values: the supplement of paper PMC9112550, “Optimization of the antimicrobial peptide Bac7 by deep mutational scanning” (BMC Biology, 2022)

Test system: Escherichia coli TOP10
Assay: shrunken log2 fold change of peptide-encoding DNA abundance (4.5 h post-induction vs induction); higher = less antimicrobial activity (less host growth inhibition)
Settings: time post-induction: 4.5 h; library: site-saturation at positions 5, 18, 19, 20
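Also: peptides expressed intracellularly from a pBAD plasmid library in pooled LB shake-flask culture, induced with 0.3% L-arabinose, DNA abundance read by NGS, three biological replicates, DESeq2 with apeglm shrinkage.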

Sequence	shrunken log2 fold change
RRIRGRPPRLPRPRPRPIDAPRP	0.674
RRIRGRPPRLPRPRPRPIDVPRP	0.0296
RRIRGRPPRLPRPRPRPIDYPRP	-0.0822
RRIRGRPPRLPRPRPRPIEYPRP	0.0165
RRIRGRPPRLPRPRPRPIFKPRP	0.359
RRIRGRPPRLPRPRPRPIHLPRP	-0.0773
RRIRGRPPRLPRPRPRPIIAPRP	0.571
RRIRGRPPRLPRPRPRPIIPPRP	-0.212
RRIRGRPPRLPRPRPRPIIWPRP	0.392
RRIRGRPPRLPRPRPRPILFPRP	0.257
RRIRGRPPRLPRPRPRPILHPRP	0.0775
RRIRGRPPRLPRPRPRPILVPRP	0.133
RRIRGRPPRLPRPRPRPIMDPRP	0.0794
RRIRGRPPRLPRPRPRPIMLPRP	2.36
RRIRGRPPRLPRPRPRPIMSPRP	0.0881
RRIRGRPPRLPRPRPRPINDPRP	-0.211
RRIRGRPPRLPRPRPRPINHPRP	-0.0462
RRIRGRPPRLPRPRPRPINPPRP	-0.0416
RRIRGRPPRLPRPRPRPINWPRP	0.193
RRIRGRPPRLPRPRPRPIQCPRP	0.0816
RRIRGRPPRLPRPRPRPIQEPRP	0.416
RRIRGRPPRLPRPRPRPIQRPRP	0.0933
RRIRGRPPRLPRPRPRPIQTPRP	0.0411
RRIRGRPPRLPRPRPRPIRFPRP	0.0151
RRIRGRPPRLPRPRPRPIRKPRP	0.124

Sequence	shrunken log2 fold change
RRIRGRPPRLPRPRPRPIRRPRP	0.346
RRIRGRPPRLPRPRPRPIRVPRP	-0.189
RRIRGRPPRLPRPRPRPISCPRP	0.279
RRIRGRPPRLPRPRPRPITAPRP	0.236
RRIRGRPPRLPRPRPRPITKPRP	-0.0602
RRIRGRPPRLPRPRPRPITMPRP	-0.0891
RRIRGRPPRLPRPRPRPIVPPRP	0.02
RRIRGRPPRLPRPRPRPIWYPRP	-0.114
RRIRGRPPRLPRPRPRPIYIPRP	-0.0529
RRIRGRPPRLPRPRPRPKAYPRP	0.12
RRIRGRPPRLPRPRPRPKDSPRP	0.244
RRIRGRPPRLPRPRPRPKDVPRP	-0.0336
RRIRGRPPRLPRPRPRPKERPRP	0.00594
RRIRGRPPRLPRPRPRPKFVPRP	0.458
RRIRGRPPRLPRPRPRPKGDPRP	0.0175
RRIRGRPPRLPRPRPRPKHHPRP	0.309
RRIRGRPPRLPRPRPRPKKLPRP	0.39
RRIRGRPPRLPRPRPRPKKYPRP	0.119
RRIRGRPPRLPRPRPRPKLEPRP	0.507
RRIRGRPPRLPRPRPRPKMEPRP	0.582
RRIRGRPPRLPRPRPRPKMRPRP	1.33
RRIRGRPPRLPRPRPRPKMYPRP	0.107
RRIRGRPPRLPRPRPRPKNHPRP	0.179
RRIRGRPPRLPRPRPRPKNLPRP	0.121
RRIRGRPPRLPRPRPRPKPKPRP	0.601

Sequence	shrunken log2 fold change
RRIRGRPPRLPRPRPRPKQSPRP	0.887
RRIRGRPPRLPRPRPRPKRLPRP	0.217
RRIRGRPPRLPRPRPRPKRQPRP	0.377
RRIRGRPPRLPRPRPRPKRSPRP	0.301
RRIRGRPPRLPRPRPRPKSWPRP	0.925
RRIRGRPPRLPRPRPRPKVRPRP	0.105
RRIRGRPPRLPRPRPRPKVSPRP	0.787
RRIRGRPPRLPRPRPRPKWIPRP	0.118
RRIRGRPPRLPRPRPRPKWKPRP	0.202
RRIRGRPPRLPRPRPRPKWTPRP	0.392
RRIRGRPPRLPRPRPRPKYAPRP	0.501
RRIRGRPPRLPRPRPRPKYKPRP	0.0104
RRIRGRPPRLPRPRPRPKYPPRP	0.0365
RRIRGRPPRLPRPRPRPLAPPRP	0.998
RRIRGRPPRLPRPRPRPLCFPRP	0.705
RRIRGRPPRLPRPRPRPLCPPRP	0.422
RRIRGRPPRLPRPRPRPLCYPRP	0.238
RRIRGRPPRLPRPRPRPLDAPRP	0.969
RRIRGRPPRLPRPRPRPLDCPRP	0.141
RRIRGRPPRLPRPRPRPLEEPRP	1.76
RRIRGRPPRLPRPRPRPLEGPRP	0.0436
RRIRGRPPRLPRPRPRPLERPRP	0.577
RRIRGRPPRLPRPRPRPLFSPRP	0.113
RRIRGRPPRLPRPRPRPLGAPRP	1.07
RRIRGRPPRLPRPRPRPLKIPRP	0.365
